Assay results as given in the MegaScale stability set (Tsuboyama et al. 2023).

B1: EEHEE_rd4_0469 (parent)
chain: ITIHVNGVTYHFDNPEEAEKFAQKMAKTYQLKMEIHNGEFHME

Variants of: B1
Test: folding stability dG (cDNA display proteolysis); higher = more stable
Conditions: PBS, room temperature

Folding stability dG [kcal/mol]: each site, then its substitutions
E34: I 1.67; H 1.41; F 1.82; D 0.739; C 2.43; T 1.51; K 1.17; L 1.26; R 1.22; Q 0.991; Y 1.78; M 1.33; N 1.06; S 1.28; G 0.776; P 0.209; W 1.54; A 1.03; V 1.91
L31: W 0.829; G 1.02; F 1.1; D 1.3; Q 0.833; M 1.01; I 1.15; T 0.775; A 0.799; N 1; E 1.29; K 0.692; C 2.3; H 0.984; Y 1.14; V 1.28; P 1.13; S 0.767; R 0.214
M33: Y 1.11; W 1.36; I 1.6; T 0.664; D 0.558; P 0.368; A 0.574; Q 0.352; V 1.46; H 0.293; K -0.407; E 0.678; G 0.452; S 0.431; F 1.18; N 0.297; L 1.43; C 2.62
G38: N 0.855; C 2.21; F 0.963; P 0.616; Q 0.664; T 0.717; D 0.717; Y 0.871; V 0.627; K 0.72; L 0.917; W 0.914; A 0.774; R 0.609; H 0.885; E 0.77; I 0.832; S 0.699; M 0.798
I35: F 1.21; D 0.68; G 0.722; R 0.522; P 0.562; Q 0.822; L 1.07; V 1.03; H 0.724; W 1.06; M 0.949; S 0.764; Y 1.24; N 0.687; A 0.721; E 0.844; T 0.802; K 0.644
H36: R 1.49; L 1.2; Y 1.26; M 0.945; K 1.28; S 0.832; A 0.796; F 1.19; D 0.709; N 0.903; P 0.499; T 0.926; E 0.92; I 1.66; G 0.601; W 1.24; C 1.69; Q 0.93; V 1.35
K32: M 1.44; H 1.48; S 1.39; T 1.51; I 1.66; E 1.48; A 1.37; R 0.848; F 1.44; Y 1.58; W 1.54; G 1.13; D 1.31; P 1.09; L 1.52; Q 1.45; V 1.62; N 1.28
H41: N 0.659; Y 1.69; V 1.11; Q 0.682; D 0.697; S 0.86; L 0.929; R 0.848; M 0.892; I 1.08; A 0.623; C 1.72; E 0.697; G 0.628; W 1.57; T 0.857; P 0.588; F 1.55; K 0.756
E43: A 1.2; F 2.01; P 0.817; M 1.69; S 1.34; D 0.889; H 1.46; R 1.56; T 1.72; G 1.14; Y 1.94; W 1.82; L 1.61; C 2.31; I 2.02; V 2.36; Q 1.21; K 1.5; N 1.17
Q30: S 0.808; Y 1.14; R 0.814; P 1.53; M 0.881; W 1.11; N 1.17; T 0.699; V 0.688
N37: I 1.1; S 0.831; E 0.831; G 1.02; H 1.11; Y 1.14; R 0.716; D 1.02; T 0.767; K 0.81; W 1.17; L 1.09; M 1.03; F 1.19; A 0.861; V 0.9; Q 0.88; P 0.635
E39: T 0.836; V 1.07; F 0.886; A 1.02; L 0.728; C 1.69; W 0.978; H 1.16; R 0.762; D 0.969; N 0.81; S 0.882; K 0.828; P 0.802; Q 1.11; G 0.755; I 1.17; M 0.924; Y 0.934
F40: H 0.761; W 1.76; S 0.704; L 1.37; G 0.641; Q 0.754; T 0.801; P 0.69; R 0.623; K 0.661; D 0.578; V 1.19; M 1.23; N 0.711; A 0.744; Y 1.31; C 1.79; E 0.603; I 1.6
M42: L 1.3; N 0.637; R 0.687; T 0.657; P 0.756; Q 0.661; I 0.961; G 0.673; W 0.913; V 0.797; Y 1.02; H 0.709; E 0.615; S 0.715; F 1.24; A 0.838; D 0.727; K 0.711
